Experiments:
[1] = target: human SIRPα variant 2 (human) (UniProt P78324); test: CELISA, CHO-K1 transfectants; extrapolated
[2] = target: human SIRPα variant 1 (human) (UniProt P78324); test: CELISA, CHO-K1 transfectants; extrapolated
[3] = target: human SIRPα variant 1 (human) (UniProt P78324); test: CELISA, CHO-K1 transfectants
[4] = target: hSIRPαV1(P74A) (human) (UniProt P78324); test: CELISA, CHO-K1 transfectants
[5] = target: hSIRPβ1 transcript variant 3/hSIRPβL (human) (UniProt Q5TFQ8); test: CELISA, CHO-K1 transfectants; extrapolated
Chain of hSIRPβ1 transcript variant 3/hSIRPβL (human) (Q5TFQ8 30-398 limits assumed, change not shown): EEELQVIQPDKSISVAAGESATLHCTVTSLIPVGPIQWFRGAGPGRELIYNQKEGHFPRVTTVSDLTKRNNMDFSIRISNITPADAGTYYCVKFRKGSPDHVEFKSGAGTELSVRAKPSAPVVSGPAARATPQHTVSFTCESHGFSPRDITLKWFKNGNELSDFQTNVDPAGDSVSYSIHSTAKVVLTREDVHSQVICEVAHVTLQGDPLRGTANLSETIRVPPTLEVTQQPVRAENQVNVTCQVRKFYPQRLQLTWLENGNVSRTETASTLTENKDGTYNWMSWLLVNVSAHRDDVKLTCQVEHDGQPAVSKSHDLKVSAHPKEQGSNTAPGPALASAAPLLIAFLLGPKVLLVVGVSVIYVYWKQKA

[6] = target: human SIRPγ (human) (UniProt Q9P1W8); test: CELISA, CHO-K1 transfectants; extrapolated
Chain of human SIRPγ (human) (Q9P1W8 29-387 limits assumed): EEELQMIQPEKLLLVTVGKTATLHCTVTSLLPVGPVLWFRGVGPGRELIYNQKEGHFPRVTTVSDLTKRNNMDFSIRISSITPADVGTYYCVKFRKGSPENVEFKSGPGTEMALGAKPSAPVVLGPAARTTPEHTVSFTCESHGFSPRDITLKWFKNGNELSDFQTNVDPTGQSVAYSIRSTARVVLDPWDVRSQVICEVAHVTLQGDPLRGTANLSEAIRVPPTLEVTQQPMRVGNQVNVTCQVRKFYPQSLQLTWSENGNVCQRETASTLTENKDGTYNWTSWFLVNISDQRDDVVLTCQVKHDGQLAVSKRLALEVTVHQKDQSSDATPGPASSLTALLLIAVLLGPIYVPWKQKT

[7] = target: human SIRPβ1 (human) (UniProt O00241); test: CELISA, CHO-K1 transfectants; extrapolated
Chain of human SIRPβ1 (human) (O00241 30-398 limits assumed): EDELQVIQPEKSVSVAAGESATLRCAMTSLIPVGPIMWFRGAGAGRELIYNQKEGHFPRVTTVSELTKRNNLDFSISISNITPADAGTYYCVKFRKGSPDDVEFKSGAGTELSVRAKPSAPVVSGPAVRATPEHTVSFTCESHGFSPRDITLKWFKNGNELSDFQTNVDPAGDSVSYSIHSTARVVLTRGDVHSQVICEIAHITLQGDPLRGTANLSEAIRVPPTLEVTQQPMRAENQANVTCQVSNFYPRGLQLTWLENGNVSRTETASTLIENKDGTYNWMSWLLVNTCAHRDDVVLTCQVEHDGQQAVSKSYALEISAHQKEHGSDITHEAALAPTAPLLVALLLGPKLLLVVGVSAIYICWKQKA

[8] = target: human SIRPβ1 (human) (UniProt O00241); test: CELISA, CHO-K1 transfectants
[9] = target: hSIRP-VβC1γC2β (human) (UniProt O00241); test: CELISA, CHO-K1 transfectants, domain exchange study
Chain of hSIRP-VβC1γC2β (human) (O00241 other isoform, or with tags, fused parts or gaps limits assumed): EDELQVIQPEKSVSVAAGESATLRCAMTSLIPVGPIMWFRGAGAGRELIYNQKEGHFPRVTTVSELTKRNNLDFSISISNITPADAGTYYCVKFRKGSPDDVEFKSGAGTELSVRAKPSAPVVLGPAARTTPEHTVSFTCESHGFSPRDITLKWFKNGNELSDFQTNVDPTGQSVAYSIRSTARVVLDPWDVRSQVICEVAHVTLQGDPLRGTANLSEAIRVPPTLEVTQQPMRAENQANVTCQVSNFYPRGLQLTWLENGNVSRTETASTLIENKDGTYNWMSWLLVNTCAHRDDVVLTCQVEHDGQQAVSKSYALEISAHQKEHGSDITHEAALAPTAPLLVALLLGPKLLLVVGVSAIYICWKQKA

[10] = target: hSIRP-VγC1βC2β (human) (UniProt O00241); test: as above
[11] = target: human SIRPα variant 2 (human) (UniProt P78324); test: as above
[12] = target: hSIRP-VβC1βC2γ (human) (UniProt O00241); test: as above
Chain of hSIRP-VβC1βC2γ (human) (O00241 other isoform, or with tags, fused parts or gaps limits assumed): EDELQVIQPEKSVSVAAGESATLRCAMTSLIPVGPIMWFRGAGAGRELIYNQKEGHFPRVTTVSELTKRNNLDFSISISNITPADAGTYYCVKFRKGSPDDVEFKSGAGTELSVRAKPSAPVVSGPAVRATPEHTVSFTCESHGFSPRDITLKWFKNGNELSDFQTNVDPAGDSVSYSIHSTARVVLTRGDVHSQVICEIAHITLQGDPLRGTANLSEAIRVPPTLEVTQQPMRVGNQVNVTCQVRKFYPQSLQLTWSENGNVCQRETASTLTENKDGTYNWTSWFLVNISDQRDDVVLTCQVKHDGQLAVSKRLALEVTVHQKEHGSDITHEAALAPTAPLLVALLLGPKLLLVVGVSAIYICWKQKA

[13] = target: human SIRPβ1 (human) (UniProt O00241); test: as above
[14] = target: human SIRPα variant 1 (human) (UniProt P78324); test: as above
[15] = target: hSIRPα-VαC1βC2α (human) (UniProt P78324); test: as above
Chain of hSIRPα-VαC1βC2α (human) (P78324 other isoform, or with tags, fused parts or gaps limits assumed): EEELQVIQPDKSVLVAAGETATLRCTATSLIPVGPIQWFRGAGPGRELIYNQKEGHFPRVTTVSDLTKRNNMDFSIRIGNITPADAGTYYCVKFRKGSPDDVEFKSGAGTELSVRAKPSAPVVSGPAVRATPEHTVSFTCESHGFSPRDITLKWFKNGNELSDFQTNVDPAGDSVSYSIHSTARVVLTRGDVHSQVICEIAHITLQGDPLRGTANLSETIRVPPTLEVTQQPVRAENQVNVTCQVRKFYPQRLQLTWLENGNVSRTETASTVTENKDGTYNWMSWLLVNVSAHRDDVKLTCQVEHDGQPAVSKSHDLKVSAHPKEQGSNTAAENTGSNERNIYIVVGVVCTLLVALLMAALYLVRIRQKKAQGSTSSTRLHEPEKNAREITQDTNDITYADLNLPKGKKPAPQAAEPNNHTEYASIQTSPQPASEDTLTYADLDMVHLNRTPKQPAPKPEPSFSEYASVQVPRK

[16] = target: human SIRPα variant 2 (human) (UniProt P78324); test: as above; remark: listed apart in the source
[17] = target: hSIRPα-VαC1αC2β (human) (UniProt P78324); test: as above
[18] = target: human SIRPβ1 (human) (UniProt O00241); test: as above; remark: listed apart in the source
[19] = target: human SIRPα variant 1 (human) (UniProt P78324); test: as above; remark: listed apart in the source
[20] = target: hSIRPα-VβC1αC2α (human) (UniProt P78324); test: as above
[21] = target: hSIRPαV6 (NA18507_V6) (human) (UniProt P78324); test: CELISA, CHO-K1 transfectants; average of two experiments
[22] = target: hSIRPαV4 (NA11832_V4) (human) (UniProt P78324); test: as above
[23] = target: human SIRPα variant 2 (human) (UniProt P78324); test: as above
[24] = target: hSIRPαV5 (NA18502_V5) (human) (UniProt P78324); test: as above
Chain of hSIRPαV5 (NA18502_V5) (human) (P78324 other isoform, or with tags, fused parts or gaps limits assumed): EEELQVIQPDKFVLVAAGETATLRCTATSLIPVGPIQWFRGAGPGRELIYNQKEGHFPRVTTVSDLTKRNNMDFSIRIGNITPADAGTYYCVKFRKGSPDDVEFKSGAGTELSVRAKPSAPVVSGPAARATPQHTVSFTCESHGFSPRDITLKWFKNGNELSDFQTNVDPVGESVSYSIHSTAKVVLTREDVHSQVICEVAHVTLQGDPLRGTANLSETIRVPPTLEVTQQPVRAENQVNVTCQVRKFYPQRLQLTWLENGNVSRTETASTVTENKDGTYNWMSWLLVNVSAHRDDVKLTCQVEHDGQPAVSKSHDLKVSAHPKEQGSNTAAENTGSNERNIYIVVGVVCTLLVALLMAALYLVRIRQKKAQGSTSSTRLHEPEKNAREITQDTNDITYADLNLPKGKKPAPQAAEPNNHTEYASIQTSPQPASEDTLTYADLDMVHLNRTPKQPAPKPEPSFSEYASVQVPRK

[25] = target: hSIRPαV9 (NA18943_V9) (human) (UniProt P78324); test: as above
[26] = target: hSIRPαV3 (NA07056_V3) (human) (UniProt P78324); test: as above
Chain of hSIRPαV3 (NA07056_V3) (human) (P78324 other isoform, or with tags, fused parts or gaps limits assumed): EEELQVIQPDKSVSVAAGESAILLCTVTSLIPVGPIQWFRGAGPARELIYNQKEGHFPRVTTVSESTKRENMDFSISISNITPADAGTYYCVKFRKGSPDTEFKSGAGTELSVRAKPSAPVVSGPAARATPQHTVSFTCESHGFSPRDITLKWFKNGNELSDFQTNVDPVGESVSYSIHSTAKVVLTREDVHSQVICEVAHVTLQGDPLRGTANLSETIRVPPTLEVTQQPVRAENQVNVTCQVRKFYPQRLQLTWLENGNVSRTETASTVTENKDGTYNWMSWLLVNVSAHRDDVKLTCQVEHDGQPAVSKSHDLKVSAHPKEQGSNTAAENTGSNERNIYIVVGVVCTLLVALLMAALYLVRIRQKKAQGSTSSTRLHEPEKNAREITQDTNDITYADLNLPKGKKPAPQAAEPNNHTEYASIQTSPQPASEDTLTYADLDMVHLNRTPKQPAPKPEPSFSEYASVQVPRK

[27] = target: human SIRPα variant 1 (human) (UniProt P78324); test: as above
[28] = target: hSIRPαV8 (NA18570_V8) (human) (UniProt P78324); test: as above
[29] = target: human SIRPα variant 2 (human) (UniProt P78324); test: CELISA, CHO-K1 transfectants; n = 1
[30] = target: human SIRPγ (human) (UniProt Q9P1W8); test: CELISA, CHO-K1 transfectants; n = 1
[31] = target: human SIRPβ1 (human) (UniProt O00241); test: CELISA, CHO-K1 transfectants; n = 1
[32] = target: human SIRPα variant 1 (human) (UniProt P78324); test: CELISA, CHO-K1 transfectants; n = 1
[33] = target: human SIRPβ1 (human) (UniProt O00241); test: CELISA, CHO-K1 transfectants, point mutant study
[34] = target: human SIRPα variant 1 (human) (UniProt P78324); test: CELISA, CHO-K1 transfectants, point mutant study
[35] = target: hSIRPαV1(P74A) (human) (UniProt P78324); test: CELISA, CHO-K1 transfectants, point mutant study
[36] = target: human SIRPα variant 1 (human) (UniProt P78324); test: CELISA, CHO-K1 transfectants, point mutant study; remark: listed apart in the source
[37] = target: hSIRPαV1(P74A) (human) (UniProt P78324); test: CELISA, CHO-K1 transfectants, point mutant study; remark: listed apart in the source
[38] = target: human SIRPα variant 2 (human) (UniProt P78324); test: CELISA, CHO-K1 transfectants
[39] = target: hSIRPβ1 transcript variant 3/hSIRPβL (human) (UniProt Q5TFQ8); test: CELISA, CHO-K1 transfectants
[40] = target: human SIRPγ (human) (UniProt Q9P1W8); test: CELISA, CHO-K1 transfectants
[41] = target: human SIRPβ1 (human) (UniProt O00241); test: CELISA, CHO-K1 transfectants; remark: listed apart in the source
[42] = target: human SIRPα variant 1 (human) (UniProt P78324); test: CELISA, CHO-K1 transfectants; remark: listed apart in the source

Chain of human SIRPα variant 2 (human) (P78324 other isoform, or with tags, fused parts or gaps mutant limits assumed): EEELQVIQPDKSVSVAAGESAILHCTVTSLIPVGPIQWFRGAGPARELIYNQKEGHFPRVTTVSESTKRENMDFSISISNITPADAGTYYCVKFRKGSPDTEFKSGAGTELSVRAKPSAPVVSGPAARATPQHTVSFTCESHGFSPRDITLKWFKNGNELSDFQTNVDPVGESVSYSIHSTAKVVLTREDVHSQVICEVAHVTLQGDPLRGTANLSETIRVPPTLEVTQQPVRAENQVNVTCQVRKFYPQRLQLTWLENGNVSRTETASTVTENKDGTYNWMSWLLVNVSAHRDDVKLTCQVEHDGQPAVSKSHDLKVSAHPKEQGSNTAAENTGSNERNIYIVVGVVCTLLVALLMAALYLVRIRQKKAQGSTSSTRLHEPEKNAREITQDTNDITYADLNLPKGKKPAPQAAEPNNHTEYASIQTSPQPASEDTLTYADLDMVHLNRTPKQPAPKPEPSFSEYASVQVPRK
Chain of hSIRPαV1(P74A) (human) (P78324 31-504 P74A limits assumed): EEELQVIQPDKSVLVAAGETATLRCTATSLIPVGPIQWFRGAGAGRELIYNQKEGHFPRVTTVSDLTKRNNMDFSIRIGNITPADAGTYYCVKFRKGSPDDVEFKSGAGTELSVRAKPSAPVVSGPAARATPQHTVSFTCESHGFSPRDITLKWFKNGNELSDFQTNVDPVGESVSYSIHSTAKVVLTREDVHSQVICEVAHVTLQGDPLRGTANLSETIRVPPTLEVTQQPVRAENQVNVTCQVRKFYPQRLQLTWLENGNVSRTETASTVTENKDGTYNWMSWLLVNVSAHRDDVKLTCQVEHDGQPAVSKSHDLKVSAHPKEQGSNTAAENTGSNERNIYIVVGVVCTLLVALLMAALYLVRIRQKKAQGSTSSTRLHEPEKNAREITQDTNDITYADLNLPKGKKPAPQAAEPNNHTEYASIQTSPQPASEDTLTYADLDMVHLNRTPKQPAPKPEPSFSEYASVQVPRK
Chain of human SIRPα variant 1 (human) (P78324 31-504 limits assumed, stated change not applied): as the sequence (P78324 31-504 P74A limits assumed) above, with A44P counted along it

anti-hSIRPα (clone D6I3M) (antibody)
EC50 [1]: 8.76 nM
EC50 [2]: 18.7 nM
EC50 [3]: > 6.41 nM
EC50 [4]: > 122 nM

anti-hSIRPα (clone EPR16264) (antibody)
EC50 [1]: 2.45 nM
EC50 [3]: > 1.17 nM
EC50 [4]: > 2 nM

anti-hSIRPα (clone REA144) (antibody)
EC50 [1]: 3.27 nM
EC50 [5]: 2.15 nM
EC50 [6]: 3.21 nM
EC50 [7]: 4.53 nM
EC50 [2]: 5.24 nM
EC50 [8]: > 3.08 nM
EC50 [3]: > 3.66 nM
EC50 [4]: > 4.79 nM

anti-hSIRPα (clone SE5A5) (antibody)
EC50 [9]: 0.309 nM
EC50 [10]: 0.287 nM
EC50 [11]: 0.224 nM
EC50 [12]: 0.231 nM
EC50 [13]: 0.249 nM
EC50 [14]: 0.35 nM
EC50 [15]: 0.135 nM
EC50 [16]: 0.084 nM
EC50 [17]: 0.127 nM
EC50 [18]: 0.18 nM
EC50 [19]: 0.117 nM
EC50 [20]: 0.121 nM
EC50 [21]: 0.098 nM
EC50 [22]: 0.256 nM
EC50 [23]: 0.2 nM
EC50 [24]: 0.276 nM
EC50 [25]: 0.26 nM
EC50 [26]: 0.226 nM
EC50 [27]: 0.327 nM
EC50 [28]: 0.3 nM
EC50 [8]: 0.105 nM
EC50 [3]: 0.156 nM
EC50 [4]: 0.207 nM
EC50 [29]: 0.2 nM
EC50 [30]: 0.168 nM
EC50 [31]: 0.192 nM
EC50 [32]: 0.304 nM
EC50 [33]: 0.156 nM
EC50 [34]: 0.164 nM
EC50 [35]: 0.15 nM
EC50 [36]: 0.163 nM
EC50 [37]: 0.149 nM
EC50 [38]: 0.186 nM
EC50 [39]: 0.122 nM
EC50 [40]: 0.2 nM
EC50 [41]: 0.185 nM
EC50 [42]: 0.372 nM

anti-hSIRPα (clone SE7C2) (antibody)
EC50 [5]: 26.8 nM
EC50 [2]: 1.27 nM
EC50 [3]: > 7.01 nM
EC50 [4]: > 6.14 nM
EC50 [38]: 0.3 nM
EC50 [40]: 1.52 nM

anti-hSIRPγ (clone LSB2.20) (antibody)
EC50 [30]: 0.265 nM

From patent US20180312587A1
